Source: article PMC3600089 (ACS chemical biology, 2012)

B2: GST-TACC3-CT E629A (domain or fragment)
chain: not shown

Assays:
ARNT2 PAS-B E372A = ARNT2 PAS-B E372A (human, UniProt Q9HBZ2 330-444, E372A); assay: pull-down
[1] = target: His-ARNT2 PAS-B (human ARNT2 residues 330-444) (human, UniProt Q9HBZ2 330-444); assay: pull-down
[2] = target: T1, His-ARNT PAS-B (human ARNT residues 356-470) (human, UniProt P27540 356-470); assay: pull-down
ARNT2 PAS-B K391A = ARNT2 PAS-B K391A (human, UniProt Q9HBZ2 330-444, K391A); assay: pull-down
[3] = target: T1, His-ARNT PAS-B (human ARNT residues …); assay: AlphaScreen or HTRF
GST-TACC3-CT E629A = target: B2; assay: AlphaScreen or HTRF

B1: GST-TACC3-CT (murine TACC3 residues 561-631) (domain or fragment)
chain: not shown
binding result (ARNT2 PAS-B E372A): binds
binding result [1]: binds
binding result [2]: binds
binding result (ARNT2 PAS-B K391A): binds

B2
binding result [3]: binds

B3: untagged ARNT PAS-B (domain or fragment)
chain: not shown
IC50 (GST-TACC3-CT E629A): 2000 to 3000 nM
